Our source for the Kd values is patent US20040096912A1.

The target in the assay is µ opioid receptors in brain membranes of heterozygous Cre/S196A mice. Briefly: [^3H]DAMGO saturation binding, Scatchard analysis, brain membranes of heterozygous Cre/S196A mice.

On to “[^3H]DAMGO ([D-Ala^1.N-McPhe^4.Gly^5-ol]enkephalin) (peptide)”, for which the Kd (as a rule, the concentration at which binding is half-saturated) was 2.45 nM.
